Measurements from paper PMC12752606, “METTL10‐Mediated PIAS3 Methylation Links Purine Metabolism to Gastric Cancer Progression” (Advanced Science, 2025).

Biological target: T1, GST-PIAS3 (UniProt Q9Y6X2 1-628)
T1 construct: PIAS3; also called bacterially expressed PIAS3; source: E. coli BL21, purified (Glutathione Agarose Resin)
T1 sequence (looked up): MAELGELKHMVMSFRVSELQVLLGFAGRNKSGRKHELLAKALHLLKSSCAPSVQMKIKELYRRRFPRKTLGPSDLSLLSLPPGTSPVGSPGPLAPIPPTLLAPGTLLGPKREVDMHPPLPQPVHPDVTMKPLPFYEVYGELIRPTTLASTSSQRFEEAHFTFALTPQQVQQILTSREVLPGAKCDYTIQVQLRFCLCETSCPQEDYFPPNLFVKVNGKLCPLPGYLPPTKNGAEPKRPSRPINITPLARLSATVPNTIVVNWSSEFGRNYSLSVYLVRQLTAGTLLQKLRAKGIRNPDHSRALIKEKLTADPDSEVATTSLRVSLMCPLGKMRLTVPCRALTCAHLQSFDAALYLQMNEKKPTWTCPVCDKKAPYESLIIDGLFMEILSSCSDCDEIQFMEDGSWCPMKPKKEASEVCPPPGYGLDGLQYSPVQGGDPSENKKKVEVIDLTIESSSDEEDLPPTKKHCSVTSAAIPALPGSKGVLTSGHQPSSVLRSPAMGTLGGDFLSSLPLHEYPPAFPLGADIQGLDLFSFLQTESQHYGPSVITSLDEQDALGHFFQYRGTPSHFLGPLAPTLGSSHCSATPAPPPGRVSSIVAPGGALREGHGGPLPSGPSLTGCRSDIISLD
Experiment: pull-down; purified GST or GST-PIAS3 incubated with purified His-METTL10 in 25 mM Tris-HCl pH 8.0, 150 mM NaCl, 4 °C overnight; Glutathione Agarose Resin; eluted with 10 mM reduced glutathione
Conditions: both partners purified

B1: His-METTL10 (enzyme)
chain: not shown
notes: METTL10 (EEF1AKMT2); also called bacterially expressed METTL10; source: E. coli BL21, purified (Ni-NTA resin)
B1: binds.
